This is an account of results in the Human Domainome abundance scans (Beltran et al. 2025).

± gives the uncertainty stated by the source.

To fix the notation:
B1: COUP transcription factor 1, residues 83 to 159; numbered along this chain, P10589 (parent)
chain: HIECVVCGDKSSGKHYGQFTCEGCKSFFKRSVRRNLTYTCRANRNCPIDQHHRNQCQYCRLKKCLKVGMRREAVQRG

Variants of B1 are the subject of the data set. The experiment in a line: abundance fitness (aPCA) (normalised: wild type 0, dead -1); higher = more abundant; growth selection in yeast, the domain comes from the species named. As to conditions: Homo sapiens.
Take HIECVVCGDKSSGKHYGQFTCEGCKSFFKRSVRRNLTYTCRANRNCPRDQHHRNQCQYCRLKKCLKVGMRREAVQRG: the abundance fitness is -0.461 ± 0.065.
The result for HIECVVCGDKSSGKHYGQFTCEGCKSFFKRSVRRNLTYTCRANRNCPYDQHHRNQCQYCRLKKCLKVGMRREAVQRG reads -0.518 ± 0.12; that for HIECVVCGDKSSGKHYGQFTCEGCKSFFKRSVRRNLTYTCRANRNCPDDQHHRNQCQYCRLKKCLKVGMRREAVQRG, -0.302 ± 0.11; that for HIECVVCGDKSSGKHYGQFTCEGCKSFFKRSVRRNLTYTCRANRNCPLDQHHRNQCQYCRLKKCLKVGMRREAVQRG, -0.147 ± 0.046.
As for HIECVVCGDKSSGKHYGQFTCEGCKSFFKRSVRRNLTYTCRANRNCPGDQHHRNQCQYCRLKKCLKVGMRREAVQRG, the figure is -0.466 ± 0.071; as for HIECVVCGDKSSGKHYGQFTCEGCKSFFKRSVRRNLTYTCRANRNCPTDQHHRNQCQYCRLKKCLKVGMRREAVQRG, -0.094 ± 0.056.
In the case of HIECVVCGDKSSGKHYGQFTCEGCKSFFKRSVRRNLTYTCRANRNCPPDQHHRNQCQYCRLKKCLKVGMRREAVQRG, the abundance fitness is -0.788 ± 0.13.
The result for HIECVVCGDKSSGKHYGQFTCEGCKSFFKRSVRRNLTYTCRANRNCPEDQHHRNQCQYCRLKKCLKVGMRREAVQRG reads -0.23 ± 0.092; that for HIECVVCGDKSSGKHYGQFTCEGCKSFFKRSVRRNLTYTCRANRNCPNDQHHRNQCQYCRLKKCLKVGMRREAVQRG, -0.151 ± 0.088.
As for HIECVVCGDKSSGKHYGQFTCEGCKSFFKRSVRRNLTYTCRANRNCPQDQHHRNQCQYCRLKKCLKVGMRREAVQRG, the figure is -0.125 ± 0.065; as for HIECVVCGDKSSGKHYGQFTCEGCKSFFKRSVRRNLTYTCRANRNCPMDQHHRNQCQYCRLKKCLKVGMRREAVQRG, -0.13 ± 0.063; as for HIECVVCGDKSSGKHYGQFTCEGCKSFFKRSVRRNLTYTCRANRNCPFDQHHRNQCQYCRLKKCLKVGMRREAVQRG, -0.11 ± 0.087.
The result for HIECVVCGDKSSGKHYGQFTCEGCKSFFKRSVRRNLTYTCRANRNCPCDQHHRNQCQYCRLKKCLKVGMRREAVQRG reads -0.25 ± 0.071; that for HIECVVCGDKSSGKHYGQFTCEGCKSFFKRSVRRNLTYTCRANRNCPKDQHHRNQCQYCRLKKCLKVGMRREAVQRG, -0.661 ± 0.14; that for HIECVVCGDKSSGKHYGQFTCEGCKSFFKRSVRRNLTYTCRANRNCPWDQHHRNQCQYCRLKKCLKVGMRREAVQRG, -0.283 ± 0.063.
Take HIECVVCGDKSSGKHYGQFTCEGCKSFFKRSVRRNLTYTCRANRNCPHDQHHRNQCQYCRLKKCLKVGMRREAVQRG: the abundance fitness was -0.93 ± 0.22.
Take HIECVVCGDKSSGKHYGQFTCEGCKSFFKRSVRRNLTYTCRANRNCPSDQHHRNQCQYCRLKKCLKVGMRREAVQRG: the abundance fitness is -0.286 ± 0.052.
The result for HIECVVCGDKSSGKHYGQFTCEGCKSFFKRSVRRNLTYTCRANRNCPADQHHRNQCQYCRLKKCLKVGMRREAVQRG reads -0.366 ± 0.071; that for HIECVVCGDKSSGKHYGQFTCEGCKSFFKRSVRRNLTYTCRANRNCPIFQHHRNQCQYCRLKKCLKVGMRREAVQRG, 0.017 ± 0.062; that for HIECVVCGDKSSGKHYGQFTCEGCKSFFKRSVRRNLTYTCRANRNCPITQHHRNQCQYCRLKKCLKVGMRREAVQRG, -0.152 ± 0.049.
The result for HIECVVCGDKSSGKHYGQFTCEGCKSFFKRSVRRNLTYTCRANRNCPINQHHRNQCQYCRLKKCLKVGMRREAVQRG reads -0.003 ± 0.052; that for HIECVVCGDKSSGKHYGQFTCEGCKSFFKRSVRRNLTYTCRANRNCPIQQHHRNQCQYCRLKKCLKVGMRREAVQRG, -0.083 ± 0.078; that for HIECVVCGDKSSGKHYGQFTCEGCKSFFKRSVRRNLTYTCRANRNCPIIQHHRNQCQYCRLKKCLKVGMRREAVQRG, -0.199 ± 0.1.
As for HIECVVCGDKSSGKHYGQFTCEGCKSFFKRSVRRNLTYTCRANRNCPILQHHRNQCQYCRLKKCLKVGMRREAVQRG, the figure is -0.122 ± 0.052; as for HIECVVCGDKSSGKHYGQFTCEGCKSFFKRSVRRNLTYTCRANRNCPICQHHRNQCQYCRLKKCLKVGMRREAVQRG, -0.726 ± 0.13.
Regarding HIECVVCGDKSSGKHYGQFTCEGCKSFFKRSVRRNLTYTCRANRNCPIYQHHRNQCQYCRLKKCLKVGMRREAVQRG, the abundance fitness was -0.261 ± 0.078.
As for HIECVVCGDKSSGKHYGQFTCEGCKSFFKRSVRRNLTYTCRANRNCPIWQHHRNQCQYCRLKKCLKVGMRREAVQRG, the figure is -0.13 ± 0.069; as for HIECVVCGDKSSGKHYGQFTCEGCKSFFKRSVRRNLTYTCRANRNCPIHQHHRNQCQYCRLKKCLKVGMRREAVQRG, -0.269 ± 0.075; as for HIECVVCGDKSSGKHYGQFTCEGCKSFFKRSVRRNLTYTCRANRNCPIVQHHRNQCQYCRLKKCLKVGMRREAVQRG, -0.141 ± 0.052.
The result for HIECVVCGDKSSGKHYGQFTCEGCKSFFKRSVRRNLTYTCRANRNCPIGQHHRNQCQYCRLKKCLKVGMRREAVQRG reads -0.108 ± 0.046; that for HIECVVCGDKSSGKHYGQFTCEGCKSFFKRSVRRNLTYTCRANRNCPIRQHHRNQCQYCRLKKCLKVGMRREAVQRG, -0.313 ± 0.056.
The result for HIECVVCGDKSSGKHYGQFTCEGCKSFFKRSVRRNLTYTCRANRNCPIPQHHRNQCQYCRLKKCLKVGMRREAVQRG reads -0.323 ± 0.067; that for HIECVVCGDKSSGKHYGQFTCEGCKSFFKRSVRRNLTYTCRANRNCPIMQHHRNQCQYCRLKKCLKVGMRREAVQRG, -0.175 ± 0.11; that for HIECVVCGDKSSGKHYGQFTCEGCKSFFKRSVRRNLTYTCRANRNCPIKQHHRNQCQYCRLKKCLKVGMRREAVQRG, -0.343 ± 0.087.
Take HIECVVCGDKSSGKHYGQFTCEGCKSFFKRSVRRNLTYTCRANRNCPISQHHRNQCQYCRLKKCLKVGMRREAVQRG: the abundance fitness was -0.044 ± 0.044.
